Measured values published in patent US7018627 (ICOS, dated 2006).
Changes are numbered by the printed parent chain.

B1: MDC (9-69) (ligand)
chain: DSVCCRDYVRYRLPLRVVKHFYWTSDSCPRPGVVLLTFRDKEICADPRVPWVKMILNKLSQ
notes: Chemically synthesized N-terminal deletion analog
B2: murine Leu-MDC (ligand)
chain: LGPYGANVEDSICCQDYIRHPLPSRLVKEFFWTSKSCRKPGVVLITVKNRDICADPRQVWVKKLLHKLS
B3: human mature Macrophage Derived Chemokine, MDC(1-69) (ligand)
chain: GPYGANMEDSVCCRDYVRYRLPLRVVKHFYWTSDSCPRPGVVLLTFRDKEICADPRVPWVKMILNKLSQ
notes: also called mature MDC; human mature MDC
B4: MDC-eyfy (ligand)
chain: B3 chain with H28E, F29Y, Y30F, W31Y
B5: MDC-wvas (ligand)
chain: B3 chain with W59A, V60S
notes: Chemically synthesized analog
B6: TARC (Thymus and Activation-Regulated Chemokine) (ligand)
chain: ARGTNVGRECCLEYFKGAIPLRKLKTWYQTSEDCSRDAIVFVTVQGRAICSDPNNKRVKNAVKYLQSLERS
notes: The whole entry is named here
B7: human C-C chemokine receptor 4 (CCR4) (receptor)
chain: MNPTDIADTTLDESIYSNYYLYESIPKPCTKEGIKAFGELFLPPLYSLVFVFGLLGNSVVVLVLFKYKRLRSMTDVYLLNLAISDLLFVFSLPFWGYYAADQWVFGLGLCKMISWMYLVGFYSGIFFVMLMSIDRYLAIVHAVFSLRARTLTYGVITSLATWSVAVFASLPGFLFSTCYTERNHTYCKTKYSLNSTTWKVLSSLEINILGLVIPLGIMLFCYSMIIRTLQHCKNEKKNKAVKMIFAVVVLFLGFWTPYNIVLFLETLVELEVLQDCTFERYLDYAIQATETLAFVHCCLNPIIYFFLGEKFRKYILQLFKTCRGLFVLCQYCGLLQIYSADTPSSSYTQSTMDHDLHDAL
notes: Expressed on stably transfected murine pre-B L1.2 cells (L1.2/CCR4, L1.2/huCCR4); also called huCCR4; MDC receptor CCR4

How the values were obtained:
[1] = target: B7; assay: competition with 0.1 nM 125I-labeled human MDC on L1.2/huCCR4 cells; LARC at 100 nM
[2] = target: B7; assay: CCR4 binding assay on L1.2/CCR4 cells, essentially as in Example 25
[3] = target: B7; assay: cell-based or functional assay
[4] = target: B7; assay: displacement of 0.5 nM MDC-SEAP from CCR4-transfected L1.2 cells by unlabeled chemokine
Experimental: (§1) The MDC-SEAP was used as a probe to examine MDC binding to CCR4-transfected L1.2 cells. For displacement and saturation experiments, transfected L1.2 cells (approx. 3×10^5) were incubated for one hour at 16° C. in the presence of 0.5 nM MDC-SEAP in the presence or absence of various concentrations of unlabeled chemokines in 200 μl binding buffer (RPMI 1640 media containing 25 mM HEPES, pH 7.4, 1% BSA, and 0.02% sodium azide). Following incubation, the cells were washed four times in binding buffer and lysed in 50 μl of 10 mM Tris-HCl, pH 8.0, and 1% Triton X-100. Samples were heated at 65° C. for 15 minutes to inactivate cellular phosphatases, centrifuged, and stored at −20° C. until assayed.
(§2) Alkaline phosphatase activity in 10 μl of sample was determined by a chemiluminescence assay using the Great Escape Detection kit (Clontech, Palo Alto, Calif.) according to the manufacturer's instructions. […] Binding competition curves were fitted (TableCurve™) using a three-parameter logistic model described by the equation y=a/[1+(x/b)^c], where y is the amount of labelled ligand bound, a is the maximum amount of labelled ligand bound, x is the concentration of the competitive chemokine, b is the IC$50$, and c is a parameter that determines the slope of the curve at the IC$50$.

[5] = target: T1, MDC-SEAP fusion protein (human, UniProt P05187 23-506); assay: saturation binding of MDC-SEAP to CCR4-transfected L1.2 cells, Scatchard analysis
T1 construct: mature; Expressed from pcDNA3 in COS cells and used as filtered culture supernatant; also called synthetic MDC-SEAP
Experimental: as §1, §2

## chemokine LARC (from UniProt P78556 27-96) (ligand)
[1]
  cpm of labeled MDC bound in the presence of the competitor: 3800 cpm

## B1
[2]
  binding result: binds

## B2
[3]
  chemotaxis of L1.2/huCCR4 cells: response relative to full-length murine MDC: ~20 % lower

## B3
[4]
  IC50: 0.65 nM
  fold higher affinity than TARC: > 3 fold

## B4
[2]
  binding result: binds

## B5
[2]
  fold less affinity than MDC: ~500 fold

## B6
[4]
  IC50: 2.1 nM

## B7
[5]
  Kd: 0.18 nM
